Measured values reported in publication PMC8606531, “The Impact of Rare Human Variants on Barrier-To-Auto-Integration Factor 1 (Banf1) Structure and Function”.
Positions count from the first letter of the chain named.

Experiments:
Assay in all cases: EMSA; EC50; 10 mM KH2PO4, 100 mM NaCl, 0.01% IGEPAL, 5 nM Cy5 DNA, 30 min at 37 C; pH not stated; 8% gel in 1x TBE at 4 C
Conditions in all cases: protein: recombinant; tags: N-terminal His6 (pET-28a NdeI-XhoI); chain copies: 2; label: 5' Cy5 on forward strand; blunt
[1] = molecular target: T1, Banf1 H7Y (Homo sapiens, UniProt O75531 1-89, H7Y)
T1 sequence: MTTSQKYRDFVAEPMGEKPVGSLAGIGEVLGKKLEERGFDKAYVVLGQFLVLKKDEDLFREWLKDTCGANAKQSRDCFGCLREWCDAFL

[2] = molecular target: T2, Banf1 R75W (Homo sapiens, UniProt O75531 1-89, R75W)
T2 sequence: T1 sequence with Y7H, R75W

[3] = molecular target: T3, Banf1 N70T (Homo sapiens, UniProt O75531 1-89, N70T)
T3 sequence: T1 sequence with Y7H, N70T

B1: Cy5 40 bp dsDNA (dsDNA)
DNA 1: AGGAGCGCCAGACCCACCAAGAGCCCTCTATCGGTTGGGA
DNA 2: TCCCAACCGATAGAGGGCTCTTGGTGGGTCTGGCGCTCCT
With B1 the “apparent K (half saturation)” value [1] was 26.1 ± 5.02 nM, the “apparent K (half saturation)” value [2] was 27.8 ± 3.17 nM and the “apparent K (half saturation)” value [3] was 34.9 ± 4.38 nM.
